Assay results reported in patent publication US12679888B2, “IL-18 binding protein (IL-18BP) and antibodies for treating inflammatory diseases” (AB2 BIO SA, priority 2015, dated 2026).
“And” between values parts separate entries of the source, which are not always exact repeats. Identical values can stand only once. Like-named read-outs stand apart in the source and are kept apart here.

Assays:
[1] = Bioavailability of r-hIL-18BP by i.p. and s.c. route; assay type: in vivo, mouse
Experimental: (§1) No validated animal model has been described for this condition. In the collagen-induced arthritis murine model the active dose for r-hIL-18BP administered intraperitoneally (i.p.) was determined to be 1 mg/Kg body weight. […] Altogether the expected pharmacologically active dose for a “humanized mice” treated by s.c. route with r-hIL-18BP is round 4.85 mg/kg. […] Although the guidance was initially written for extrapolating animal doses to healthy volunteers, its principles can be applied also to patients. […] Those doses will be likely also ineffective in AoSD patients considering that blood levels of IL-18 in AoSD are higher than those reported in the two above mentioned conditions.

C57BL/6J mice = experiment: Four-day exacerbation/tobacco smoke mouse model (COPD exacerbation); assay type: in vivo
Experimental: The aim of the study was to determine the effect of IL-18BP, administered at three dose levels, by the sub-cutaneous route, on Polyinosinic:polycytidylic acid-induced exacerbation of tobacco-smoke induced pulmonary inflammation, in C57BL/6J mice. High level of dexamethasone, dosed orally, was included in the study as a reference agent.
(§2) Mice received either vehicle (PBS) or IL-18BP. IL-18BP was given subcutaneously to 3 groups of animals respectively at 1, 3 or 10 mg/kg 2 h prior to the initial tobacco smoke exposure from Day 1 to Day 4. Mice received orally either vehicle or dexamethasone (10 mg/kg) 1 h prior to each twice daily exposure. Mice received by intranasal administration either the vehicle or Polyinosinic:polycytidylic acid (2 mg/kg) 2 h prior to the initial air or tobacco smoke exposure on Day 4 to induce lung inflammation exacerbation. Tobacco smoke exposure was performed during the morning and afternoon as follow: Day 1 for 15 min, Day 2 for 25 min, Day 3 for 30 min and Day 4 for 30 min.
(§3) Following the above treatments, animals were terminally anaesthetised on Day 5. After that, a blood sample was taken via the sub-clavian artery (plasma) and the animals were bronchoalveloar lavaged with 3×0.4 ml of PBS for further cellular and cytokine/mediator analysis. Bronchoalveolar lavage supernatants were stored at −80° C. for cytokine/mediator analysis. Cells recovered from the BALF were counted using the Sysmex cell counter.

IL-18 [2] = molecular target: T1, IL-18 (Homo sapiens, UniProt Q14116); settings: cited from earlier work
T1 sequence (Q14116 37-193): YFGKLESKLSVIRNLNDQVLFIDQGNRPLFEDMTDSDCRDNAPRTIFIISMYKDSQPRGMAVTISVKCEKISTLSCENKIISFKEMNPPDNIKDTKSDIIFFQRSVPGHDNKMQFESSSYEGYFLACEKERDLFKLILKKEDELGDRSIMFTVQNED

G-CSF = G-CSF in BALF by ELISA, exacerbation/tobacco smoke mouse model; assay type: in vivo
Experimental: as §2, §3
G-CSF is well acknowledged as key cytokine stimulating the survival, proliferation, differentiation, and function of neutrophil precursors and mature neutrophils. […] The presence of G-CSF in the BALF was monitored with a commercially available ELISA kit.

IL-18 [3] = molecular target: T1, IL-18; experiment: KD calculation by titration of IL-18 with IL-18BP, free IL-18 ELISA (IL-18BP capture); assay type: binding; parameters: purchased; settings: read-out: KD between human IL-18 and IL-18BP by titration
Experimental: Microplate wells are coated with an appropriate volume phosphate buffer saline solution containing recombinant human IL-18BP (r-hIL-18BP) as shown in SEQ ID NO 7, and less than 30% of N-terminal and/or C-terminal deletion variants of IL-18BP. A description of the r-hIL-18BP is provided in section 6.6.1 below. A description of the purification protocol is provided in section 6.6.2. Plates are incubated for a period of time at 4° C. and then stabilized with a blocking buffer containing bovine serum albumin or other appropriate blocking agents. Once the reaction is finished, microplates are sealed and stored at 4° C. until used for detection of free IL-18. Microplates can also be dried in a stabilizing solution allowing storage at room temperature and then be reconstituted by hydration when needed for assay.
As an example, for a final reaction volume of 100 μl, dispense first 80 μl of biotin/antibody conjugate. Samples or biological fluids containing free IL-18 are tested with the IL-18BP coated microplates. After that, 20 μl sample volume containing biological fluid or standard is dispensed per microplate well. […] The resulting reactions are then monitored with a microplate reader at an appropriate nanometer wavelength for absorbance or fluorescence of the produced reagent. […]
• KD was calculated based on the following formula: KD=[free IL-18]×[free IL-18BP]/[IL-18/IL-18BP complex] […]

[4] = test system: collagen-induced arthritis murine model; experiment: Collagen-induced arthritis murine model and dose extrapolation; assay type: in vivo, mouse
Experimental: as §1

IL-18 [5] = molecular target: T1, IL-18; experiment: Dissociation constant (Kd) used for dose selection, human; assay type: binding
Experimental: as §1

[6] = in vivo
[7] = 3 and 10 mg/kg s.c., compared to positive control dexamethasone

B1: IL-18BP: soluble glycoprotein of 164 amino acids produced from a Chinese Hamster Ovary cell line; isoform a, SEQ ID NO 7 (protein, listed as Homo sapiens)
chain: TPVSQTTTAATASVRSTKDPCPSQPPVFPAAKQCPALEVTWPEVEVPLNGTLSLSCVACSRFPNFSILYWLGNGSFIEHLPGRLWEGSTSRERGSTGTQLCKALVLEQLTPALHSTNFSCVLVDPEQVVQRHVVLAQLWAGLRATLPPTQEALPSSHSSPQQQG
modifications: CHO glycosylation; MISC_FEATURE - Human interleukin-18 binding protein isoform a
bioavailability ([1]; i.p. route): ~100% | bioavailability ([1]; s.c. route): 55% | exacerbated inflammation inhibition (total cell infiltration) (C57BL/6J mice; 10 mg/kg s.c.): clear and statistically relevant efficacy | neutrophil infiltration in the lung airway space (C57BL/6J mice; 10 mg/kg s.c.): best statistical efficacy | neutrophil infiltration in the lung airway space (C57BL/6J mice; [7]): statistically valuable efficacy | total cell infiltration in the lung airway space (C57BL/6J mice; [7]): statistically valuable efficacy | weight loss (C57BL/6J mice; 3 and 10 mg/kg s.c., large majority of mice): 6-7% | tolerability (C57BL/6J mice; IL-18BP s.c.): well tolerated | weight loss mitigation (C57BL/6J mice; IL-18BP s.c., Students t-test and ANOVA): mitigated by IL-18BP even though both Students t-test and ANOVA statistical analyses were not significant | neutrophil infiltration in the lung airway space (C57BL/6J mice; IL-18BP s.c., day 5): inhibited | total cell infiltration in the lung airway space (C57BL/6J mice; IL-18BP s.c., day 5): significant mitigation of total cell infiltration | Kd (IL-18 [2]; BIAcore measurements, read-out: KD reported in the literature (Kim et al 2000)): 0.4 nM | Kd (IL-18 [2]; IL-18-IL-18BP complex, stoichiometry 1:1, read-out: Dissociation constant KD as calculated by Kim et al 2000): 0.4 nM | G-CSF release in the lung airways (BALF) (G-CSF; IL-18BP s.c., day 5): mitigates G-CSF release in the lung airways | G-CSF release in the lung airways (BALF) (G-CSF; three tested doses 1, 3 or 10 mg/kg s.c.): statistically relevant effect | Kd (IL-18 [3]; PBS supplemented by 5% BSA diluent): 0.035 nM | Kd (IL-18 [3]; Serum diluent): 0.05 nM and ~0.05 nM | effective s.c. dose in mice ([4]; adjusted for s.c. bioavailability): 1.82 mg/kg | active dose ([4]; administered intraperitoneally (i.p.)): 1 mg/Kg body weight | human equivalent dose ([4]; allometric murine conversion factor of 12.3): 0.39 mg/kg | human equivalent dose ([4]; for a 70 Kg individual): 27.3 mg | expected pharmacologically active dose for a humanized mice ([4]; s.c. route, corrected for Kd difference): ~4.85 mg/kg | Kd (IL-18 [5]): 0.16 nM | median half-life [6]: ~40 h
